The values below come from US20130109048A1, “METHOD FOR IN-VITRO MONITORING OF NEURONAL DISORDERS AND USE THEREOF” (ECOLE POLYTECHNIQUE FEDERALE DE LAUSANNE (EPFL), priority 2010, published 2013).

In data set [1] the test system is rat primary cortical neurons. Put plainly: MEA recording of spontaneous electrical activity (population bursts), TrkB inhibitor experiments. It counts as cell-based. To be noted: K252a 10 nM or 100 nM; 30 min recordings 45 min and 24 h after addition; cultures at 14-15 DIV. As for the experimental part:
Cortical cells were prepared and cultured as described previously (Van Pelt et al., 2004, IEEE Trans. Biomed. Eng., 51: 2051-2062). Cells were plated on multielectrode arrays (MEAs) and/or culture dishes, with prior surface coating by polyethylenimine (10 mg/ml, Fluka) and laminin (0.02 mg/ml, Gibco) in Neurobasal medium (MEAs) or poly-L-lysine (0.01%) in water (culture dishes), respectively, which allow the cells to readily attach to the surface and extend neurites. Plating density was 1′500 cells/mm^2 for MEAs, allowing for quick network formation and high multichannel electrophysiological recordings efficiency. A lower density of 500 cells/mm^2 was used for culture dishes, to facilitate cell counting and morphological analysis. […]
After 5 min of accommodation time following the mounting of each MEA inside the recording setup, spontaneous electrical activity from the cultured neurons was detected, amplified, and recorded at each of the 60 substrate extracellular electrodes simultaneously for 30 min at 20 kHz/channel. Recorded traces consisted in electric voltage signals whose sudden small large amplitude fluctuations are known to be produced by the nerve impulse discharges emitted by neurons growing in close proximity to the substrate electrodes that detect them extracellularly, directly related to the firing of action potentials by the neurons in the proximity of each electrode. […]

The test system of data set [2] is rat primary cortical neurons. Put plainly: Neuronal viability by counts of NeuN-positive nuclei. It counts as cell-based. To be noted: cultures treated with K252a 10 nM or 100 nM. As for the experimental part:
Cultures were washed with PBS and fixed in 4% paraformaldehyde (Fluka/Sigma, Buchs, Switzerland) or in methanol (Merck, Germany) for PSD95 (Post-synaptic density protein of 95 kDa) staining for 10 min at 4° C. Cultures were incubated with NeuN antibody which reacts with fox-3 (1:500, Chemicon, Temecula, Calif.) or 2B4 antibody which reacts with huntingtin (1:500 Millipore, Zug, Switzerland), antibody which reacts with postsynaptic density protein of 95 kDa (PSD95) (Sans et al., 2000, J. Neurosci. 20:1260-71) (1:200, Affinity Bioreagents, Golden, Colo.) and antibody which reacts neuronal class III beta-tubulin Tuj1 (Jepsen et al., 2000, Cell 102(6): 753-763) (1:2000, Covance, Emerville, Calif.) in PBS containing 10% normal goat serum (NGS, Gibco, Invitrogen, Basel, Switzerland) and 0.1% Triton X-100 (TX, Fluka, Sigma, Buchs, Switzerland). Cultures were rinsed three times in PBS and then incubated for 1 hour with fluorescent goat anti-mouse secondary antibodies (for NeuN: 1:1000 Cy3-conjugated antibody from Jackson Immunoresearch Laboratories, WestGrove, Pa.; for 2B4: 1:1000 Alexa Fluor® 488-conjugated antibodies from Invitrogen, Basel, Switzerland, for Tuj1: 1:1000 Alexa Fluor® 594-conjugated antibody from Invitorgen, Basel, Switzerland). Where indicated, cultures were stained with Hoechst 33342 dye (Invitrogen, Basel, Switzerland). […]

Data set [3] deals with htt171-82Q-expressing cortical cells. Briefly: Counting of PSD95-positive plasma membrane subdomains (punctae) by immunostaining. It counts as cell-based, rat. As to conditions: BDNF 50 ng/ml added twice weekly; htt171-82Q cells. As for the experimental part: Cultures were washed with PBS and fixed in 4% paraformaldehyde (Fluka/Sigma, Buchs, Switzerland) or in methanol (Merck, Germany) for PSD95 (Post-synaptic density protein of 95 kDa) staining for 10 min at 4° C. Cultures were incubated with NeuN antibody which reacts with fox-3 (1:500, Chemicon, Temecula, Calif.) or 2B4 antibody which reacts with huntingtin (1:500 Millipore, Zug, Switzerland), antibody which reacts with postsynaptic density protein of 95 kDa (PSD95) (Sans et al., 2000, J. Neurosci. 20:1260-71) (1:200, Affinity Bioreagents, Golden, Colo.) and antibody which reacts neuronal class III beta-tubulin Tuj1 (Jepsen et al., 2000, Cell 102(6): 753-763) (1:2000, Covance, Emerville, Calif.) in PBS containing 10% normal goat serum (NGS, Gibco, Invitrogen, Basel, Switzerland) and 0.1% Triton X-100 (TX, Fluka, Sigma, Buchs, Switzerland). […]
The synaptic status was investigated in htt171-82Q- and htt171-18Q-expressing cells. Numbers of PSD95-positive structures was quantified as described above as an indicator of postsynaptic specializations, which comprise zones where neurotransmitter receptors, particularly glutamate receptors, are clustered.

For data set [4] the test system is unchanged. Briefly: MEA recording of spontaneous electrical activity in Huntington's disease cell model with BDNF. As to conditions: BDNF 50 ng/ml added twice weekly. It counts as cell-based, rat. An excerpt:
Cells modeling in-vitro HD-related cortical dysfunction were engineered for use in a method according to the invention for showing that the effects of molecular changes on synaptic changes in cortical microcircuits exposed to mutant htt fragments could be measured by a method according to the invention. To this end, cortical cells E16-E19 Wistar rat embryos (Charles River, France) were engineered by lentiviral gene transfer using Human Immunodeficiency Virus Type 1 (HIV-1)-derived vectors to express the first 171 amino acids of normal or mutated htt under the control of a tetracycline response element-containing promoter as described in Rudinskiy et al., 2009, J. Neurochem., 111: 460-472 (FIGS. 1A,B) to achieve high transduction efficiency and high levels of transgene expression in rat primary cortical neurons following the protocol below.
Plasmids encoding the first 171 amino acids of mutated htt (htt171-82Q) (FIG. 6, SEQ ID NO: 14) or wild-type htt (htt171-18Q) (FIG. 6, SEQ ID NO: 15) under the control of a tetracycline-regulated element promoter, or the tetracycline-regulatable transactivator (tTA1) under the control of a phosphoglycerate kinase promoter were used to prepare self-inactivating lentiviral vectors (FIG. 1A) as described previously (Regulier et al., 2003, Hum. Mol. Genet., 12: 2827-2836). Lentiviral particles were re-suspended in phosphate-buffered saline (PBS)+1% bovine serum albumin and the particle content of viral batches was assessed by p24 ELISA (RETROtek, Gentaur, Paris, France) (Viral titering involves capture of p24 viral protein from the sample on a microtiter plate and detection with a second anti-p24 antibody and visualization via a colorimeteric horseradish-generated product detected at 450 nm) Cells were plated as described below. On the day following cell plating, cultures were infected with lentiviruses at ratios of 150 ng p24/1000 cells (tTA1) and 120 ng p24/1000 cells (htt171-82Q or htt171-18Q) (FIG. 1B).
Cortical cells were prepared and cultured as described previously (Van Pelt et al., 2004, IEEE Trans. Biomed. Eng., 51: 2051-2062). Cells were plated on multielectrode arrays (MEAs) and/or culture dishes, with prior surface coating by polyethylenimine (10 mg/ml, Fluka) and laminin (0.02 mg/ml, Gibco) in Neurobasal medium (MEAs) or poly-L-lysine (0.01%) in water (culture dishes), respectively, which allow the cells to readily attach to the surface and extend neurites. Plating density was 1′500 cells/mm^2 for MEAs, allowing for quick network formation and high multichannel electrophysiological recordings efficiency. A lower density of 500 cells/mm^2 was used for culture dishes, to facilitate cell counting and morphological analysis. Medium containing Neurobasal, 2% B-27 supplement (GIBCO, Invitrogen Corporation, ref 17504) and 10% horse serum (from GIBCO, Invitrogen Corporation, ref. 16050-130) was changed three times per week by removing 0.7 ml and adding 1 ml of fresh medium. Where indicated, recombinant human BDNF (R&D Systems, Minneapolis, Minn., USA) at a concentration of 50 ng/ml was added to the medium twice a week starting from in vitro day 4.
Commercial MEAs with planar TiN substrate electrodes (MultichannelSystems, Reutlingen, Germany) such as described in Potter and De Marse, 2001, above were employed for recording over long-term experiments the spontaneous electrical activity of mammalian neurons, maintained under healthy conditions ex-vivo. […]

[5] abbreviates: compared to non-BDNF-treated htt171-82Q sister cultures, 23 days in vitro.

“Also recorded” adds a separate entry of the source.

In the case of `COC(=O)[C@@]1(O)C[C@H]2O[C@]1(C)n1c3ccccc3c3c4c(c5c6ccccc6n2c5c31)C(=O)NC4` [TrkB inhibitor, K252a], the “PB (population burst) firing” value in data set [1] is “dose- and time-dependent loss of PB firing”. For the same molecule, the “neuronal viability (NeuN counts)” value in data set [2] was “without influencing neuronal viability”.

B1: BDNF: recombinant human brain-derived neurotrophic factor (R&D Systems) (protein, UniProt P23560 19-247, looked up)
Neurotrophic factor BDNF …: APMKEANIRGQGGLAYPGVRTHGTLESVNGPKAGSRGLTSLADTFEHVIEELLDEDQKVRPNEENNKDADLYTSRVMLSSQVPLEPPLLFLLEEYKNYLDAANMSMRVRRHSDPARRGELSVCDSISEWVTAADKKTAVDMSGGTVTVLEKVPVSKGQLKQYFYETKCNPMGYTKEGCRGIDKRHWNSQCRTTQSYVRALTMDSKKRIGWRFIRIDTSCVCTLTIKRGR
B1: in data set [3], the “PSD95-positive bouton-like plasma membrane subdomains (punctae)” value is “increase PSD95-positive boutons; also recorded: reversed by BDNF treatment”. Besides, in data set [4] (setting [5]), the PB frequencies entry is listed as “significantly increased PB frequencies” and the “inter-burst intervals (IBIs)” value was “decreased IBIs”. In addition, in data set [4] (htt171-82Q cells), the PB duration distribution entry was “extended to both the IBI and duration distributions”; the “size of individual PBs (numbers of individual action potentials)” value is given as “did not completely restore the size of individual PBs”. The “number of total spikes” value in data set [4] (htt171-82Q cells, 30 min recording) was “number of total spikes remained lower”.
